Paper PMC3627576 (Nucleic Acids Research, 2013)

T1: Pab-Pol D (Pyrococcus abyssi, UniProt Q9V2F4)
T1 sequence (Q9V2F4 1-954): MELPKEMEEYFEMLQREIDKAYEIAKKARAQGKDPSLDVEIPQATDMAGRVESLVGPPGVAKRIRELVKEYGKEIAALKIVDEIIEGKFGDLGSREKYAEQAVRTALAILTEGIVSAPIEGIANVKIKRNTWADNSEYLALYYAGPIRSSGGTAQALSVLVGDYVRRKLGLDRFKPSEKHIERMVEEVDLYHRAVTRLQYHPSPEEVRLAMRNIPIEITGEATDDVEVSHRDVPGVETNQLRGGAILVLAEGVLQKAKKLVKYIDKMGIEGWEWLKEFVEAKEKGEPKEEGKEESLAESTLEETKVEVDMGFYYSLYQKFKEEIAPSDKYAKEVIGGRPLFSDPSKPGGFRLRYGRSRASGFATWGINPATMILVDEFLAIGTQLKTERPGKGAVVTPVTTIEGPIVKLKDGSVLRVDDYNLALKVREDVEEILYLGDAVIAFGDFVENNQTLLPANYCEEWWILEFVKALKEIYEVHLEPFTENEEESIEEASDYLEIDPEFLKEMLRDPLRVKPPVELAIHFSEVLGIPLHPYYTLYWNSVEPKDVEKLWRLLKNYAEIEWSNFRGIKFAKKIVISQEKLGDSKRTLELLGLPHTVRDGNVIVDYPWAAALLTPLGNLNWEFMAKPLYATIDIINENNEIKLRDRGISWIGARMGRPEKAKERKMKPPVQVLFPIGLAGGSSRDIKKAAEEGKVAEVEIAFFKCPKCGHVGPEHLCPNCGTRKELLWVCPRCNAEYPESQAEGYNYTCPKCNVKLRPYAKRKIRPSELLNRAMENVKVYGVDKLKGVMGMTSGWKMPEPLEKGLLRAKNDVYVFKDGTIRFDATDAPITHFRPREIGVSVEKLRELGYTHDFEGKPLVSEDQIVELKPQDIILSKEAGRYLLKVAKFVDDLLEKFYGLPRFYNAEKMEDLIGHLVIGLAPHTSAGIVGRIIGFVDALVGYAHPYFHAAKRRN
T1 sequence (Q9V2F4 1140-1455): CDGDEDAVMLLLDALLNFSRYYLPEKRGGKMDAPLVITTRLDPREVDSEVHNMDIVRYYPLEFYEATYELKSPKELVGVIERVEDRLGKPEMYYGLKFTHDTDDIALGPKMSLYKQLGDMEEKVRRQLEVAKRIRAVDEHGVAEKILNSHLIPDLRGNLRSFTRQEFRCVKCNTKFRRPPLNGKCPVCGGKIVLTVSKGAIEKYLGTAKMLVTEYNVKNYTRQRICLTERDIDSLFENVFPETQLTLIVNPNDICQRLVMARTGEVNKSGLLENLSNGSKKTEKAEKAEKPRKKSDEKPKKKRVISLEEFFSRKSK
T1 sequence (Q9V2F3 1-619 partner): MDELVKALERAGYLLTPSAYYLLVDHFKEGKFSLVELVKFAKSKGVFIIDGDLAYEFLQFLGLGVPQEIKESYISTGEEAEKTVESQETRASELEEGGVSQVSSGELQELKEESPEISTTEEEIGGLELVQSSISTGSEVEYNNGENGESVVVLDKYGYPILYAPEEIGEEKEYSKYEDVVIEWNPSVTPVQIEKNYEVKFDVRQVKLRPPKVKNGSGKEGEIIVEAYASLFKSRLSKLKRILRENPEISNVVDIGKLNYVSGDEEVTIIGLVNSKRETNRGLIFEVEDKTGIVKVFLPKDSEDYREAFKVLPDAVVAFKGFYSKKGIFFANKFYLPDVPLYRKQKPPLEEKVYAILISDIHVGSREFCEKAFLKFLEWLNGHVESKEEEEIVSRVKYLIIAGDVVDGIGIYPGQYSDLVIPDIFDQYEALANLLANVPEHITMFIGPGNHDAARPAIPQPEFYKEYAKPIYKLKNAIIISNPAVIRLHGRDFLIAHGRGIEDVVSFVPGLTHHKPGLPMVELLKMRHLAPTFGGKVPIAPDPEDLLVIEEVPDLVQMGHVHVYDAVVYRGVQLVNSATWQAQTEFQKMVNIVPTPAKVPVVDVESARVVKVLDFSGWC

B1: primer-template -1, X=T (dsDNA)
DNA 1: TTTCTGGTTCCAGCTGGACCATTCGCCTATAGGACCTATT
DNA 2: AATAGGTCCTATAGGCGAATGGTCCAGCTGGAA
B2: primer-template -1, X=U (dsDNA)
DNA 1: TTTCTGGTUCCAGCTGGACCATTCGCCTATAGGACCTATT
DNA 2: AATAGGTCCTATAGGCGAATGGTCCAGCTGGAA
modifications: deoxyuridine at template position 9
B3: primer-template +1, X=U (dsDNA)
DNA 1: TTTCTGGTUCCAGCTGGACCATTCGCCTATAGGACCTATT
DNA 2: AATAGGTCCTATAGGCGAATGGTCCAGCTGG
modifications: deoxyuridine at template position 9
B4: primer-template +1, X=T (dsDNA)
DNA 1: TTTCTGGTTCCAGCTGGACCATTCGCCTATAGGACCTATT
DNA 2: AATAGGTCCTATAGGCGAATGGTCCAGCTGG

Assays:
Pab-Pol D = target: T1, Pab-Pol D; assay: primer extension with a single dNTP, denaturing gel; format: biochemical; settings: exo+ enzyme; template U at +1; otherwise same
[1] = target: Pfu-Pol D (family-D DNA polymerase, DP1 small + DP2 large subunits) (Pyrococcus furiosus, UniProt P81409;P81412 1-1263;1-613); assay: fluorescence anisotropy
Pfu-Pol D (family-D DNA polymerase, DP1 small + DP2 large subunits), sequence (P81409 whole entry, chain 1 of 2): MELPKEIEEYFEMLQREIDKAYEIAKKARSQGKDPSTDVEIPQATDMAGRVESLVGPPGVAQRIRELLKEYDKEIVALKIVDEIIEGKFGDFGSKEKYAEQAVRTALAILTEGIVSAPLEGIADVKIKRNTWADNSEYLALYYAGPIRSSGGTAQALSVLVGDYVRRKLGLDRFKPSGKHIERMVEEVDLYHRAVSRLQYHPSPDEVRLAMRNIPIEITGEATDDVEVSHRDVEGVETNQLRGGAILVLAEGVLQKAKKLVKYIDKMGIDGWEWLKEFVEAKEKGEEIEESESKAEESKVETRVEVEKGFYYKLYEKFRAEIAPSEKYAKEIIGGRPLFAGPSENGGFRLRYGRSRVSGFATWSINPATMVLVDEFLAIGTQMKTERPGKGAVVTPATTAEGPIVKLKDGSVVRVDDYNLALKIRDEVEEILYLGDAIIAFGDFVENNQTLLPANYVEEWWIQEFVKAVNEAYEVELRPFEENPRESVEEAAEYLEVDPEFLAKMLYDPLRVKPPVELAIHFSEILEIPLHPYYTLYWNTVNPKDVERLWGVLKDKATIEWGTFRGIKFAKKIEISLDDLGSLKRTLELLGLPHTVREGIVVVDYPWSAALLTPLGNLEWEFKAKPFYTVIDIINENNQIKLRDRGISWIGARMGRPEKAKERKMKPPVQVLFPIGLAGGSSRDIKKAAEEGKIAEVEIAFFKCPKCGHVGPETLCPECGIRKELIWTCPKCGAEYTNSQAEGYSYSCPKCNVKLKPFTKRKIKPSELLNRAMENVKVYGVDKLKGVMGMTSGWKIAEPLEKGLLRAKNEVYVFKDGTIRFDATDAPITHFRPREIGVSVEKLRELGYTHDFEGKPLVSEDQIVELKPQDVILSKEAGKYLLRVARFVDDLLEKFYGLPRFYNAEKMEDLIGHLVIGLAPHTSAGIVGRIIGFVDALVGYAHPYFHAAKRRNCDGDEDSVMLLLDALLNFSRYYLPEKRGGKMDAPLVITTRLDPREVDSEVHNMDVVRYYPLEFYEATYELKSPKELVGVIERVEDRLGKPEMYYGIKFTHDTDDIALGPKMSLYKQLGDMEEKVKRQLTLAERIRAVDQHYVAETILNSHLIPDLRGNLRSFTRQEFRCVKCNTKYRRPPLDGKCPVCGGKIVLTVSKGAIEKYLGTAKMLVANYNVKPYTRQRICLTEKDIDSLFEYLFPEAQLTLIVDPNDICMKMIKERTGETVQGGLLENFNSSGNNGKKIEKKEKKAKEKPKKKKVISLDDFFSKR
Pfu-Pol D (family-D DNA polymerase, DP1 small + DP2 large subunits), sequence (P81412 whole entry, chain 2 of 2): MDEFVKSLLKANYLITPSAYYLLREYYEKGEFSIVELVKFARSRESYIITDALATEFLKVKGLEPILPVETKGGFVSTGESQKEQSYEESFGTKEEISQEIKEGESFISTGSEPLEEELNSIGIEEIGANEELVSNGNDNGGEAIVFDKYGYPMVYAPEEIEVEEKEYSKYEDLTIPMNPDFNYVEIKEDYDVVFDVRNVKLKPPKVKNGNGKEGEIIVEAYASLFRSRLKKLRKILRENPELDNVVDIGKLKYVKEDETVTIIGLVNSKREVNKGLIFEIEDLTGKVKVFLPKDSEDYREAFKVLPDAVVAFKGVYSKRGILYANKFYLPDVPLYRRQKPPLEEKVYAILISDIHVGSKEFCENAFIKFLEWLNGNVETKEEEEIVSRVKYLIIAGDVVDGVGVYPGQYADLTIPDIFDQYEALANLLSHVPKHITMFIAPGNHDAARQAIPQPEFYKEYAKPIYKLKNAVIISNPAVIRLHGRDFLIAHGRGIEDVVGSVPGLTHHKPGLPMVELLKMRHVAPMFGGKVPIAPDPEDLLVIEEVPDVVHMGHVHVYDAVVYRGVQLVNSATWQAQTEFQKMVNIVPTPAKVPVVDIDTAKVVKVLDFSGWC

Row | Molecule | primer extension with a single dNTP, denaturing gel (Pab-Pol D) | Kd [1] [nM]
1 | Nc1ncnc2c1ncn2[C@H]1C[C@H](O)[C@@H](COP(=O)(O)OP(=O)(O)OP(=O)(O)O)O1 [dATP] | Pab-Pol D exo^+ only incorporated adenine opposite uracil | –
2 | TTTCTGGTTCCAGCTGGACCATTCGCCTATAGGACCTATT (ssDNA) [single strand, X=T] | – | 6 ± 1.6
3 | B1 | – | 9.3 ± 0.6
4 | B2 | – | 5.2 ± 1.3
5 | TTTCTGGTUCCAGCTGGACCATTCGCCTATAGGACCTATT (ssDNA, deoxyuridine at position 9) [single strand, X=U] | – | 3.4 ± 0.3
6 | B3 | – | 5.8 ± 0.4
7 | B4 | – | 9.1 ± 1.5
